Reference: patent publication US20100256055A1 (ANGIOCHEM, published 2010)
Square brackets hold non-standard residues; d marks the D form. pGlu = O=C1CC[C@@H](C(=O)O)N1

B1: pGlu-LysNT(8-13) (peptide)
peptide: [pGlu]KRRPYIL-OH
SMILES: CC[C@H](C)[C@H](NC(=O)[C@H](Cc1ccc(O)cc1)NC(=O)[C@@H]1CCCN1C(=O)[C@H](CCCNC(=N)N)NC(=O)[C@H](CCCNC(=N)N)NC(=O)[C@H](CCCCN)NC(=O)[C@@H]1CCC(=O)N1)C(=O)N[C@@H](CC(C)C)C(=O)O
notes: Structure printed only as drawing CHEM-US-00006; The chain is built from the name, and Mw 1056.26 fits pGlu-KRRPYIL; also called pE-Lys-NT(8-13); pGlu-NT(8-13)
B2: Ac-LysNT(8-13) (peptide)
peptide: Ac-KRRPYIL-OH
notes: Structure printed only as drawing CHEM-US-00004; The chain is built from the name, and Mw 987.20 fits Ac-KRRPYIL

Experiments:
[1] = target: NT receptor NTSR1 (high affinity NTSR1 receptor) on HT29 cells (human) (UniProt P30989); assay: competition with [3H]-NT on HT29 cells expressing NTSR1
[2] = target: T1, NT receptor NTSR1 (high affinity NTSR1 receptor) on HT29 cells (human, UniProt P30989 1-418); assay: as above
T1 construct: whole, on cells; also called neurotensin receptor type 1; NTR1
T1 sequence (P30989 whole entry): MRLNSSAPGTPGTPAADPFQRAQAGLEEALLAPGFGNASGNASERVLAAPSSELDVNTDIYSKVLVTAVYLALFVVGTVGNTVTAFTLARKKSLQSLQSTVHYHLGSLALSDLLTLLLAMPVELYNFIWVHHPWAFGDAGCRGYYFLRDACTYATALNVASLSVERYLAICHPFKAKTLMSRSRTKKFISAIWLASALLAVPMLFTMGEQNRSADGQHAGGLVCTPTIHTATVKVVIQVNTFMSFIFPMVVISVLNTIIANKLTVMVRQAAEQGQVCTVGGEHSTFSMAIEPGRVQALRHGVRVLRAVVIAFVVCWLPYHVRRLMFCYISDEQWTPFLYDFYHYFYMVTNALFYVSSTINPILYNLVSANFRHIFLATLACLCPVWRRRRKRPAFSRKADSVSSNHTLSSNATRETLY

Chain of NT receptor NTSR1 (high affinity NTSR1 receptor) on HT29 cells (human) (P30989 whole entry): as above

Molecule | IC50 [1] | fold weaker binding than native NT [1] | IC50 [2]
Ac-Lys-[D-Tyr^11]NT(8-13) (Ac-KRRPD-YIL-OH) (peptide) | 5390 nM | > 1000 fold | –
B1 | – | – | 1.3 nM
B2 | – | – | 1 nM
